# Reference: patent US20150104459A1
# Values joined by “and” are separate entries in the source; they are usually repeats but may differ in a detail not shown here. Equal entries are not always repeated.
# B1: TCN-504 (3251_K17) (antibody, V domains shown)
# VH: QVQLQESGPGLVKPSETLSLTCAVSGVSISNIDFYWGWIRQPPGKGLEWIGNIYYTGITFYNPSLSSRVAISIDTSKNQFSLTLTSVTAADTAMYYCARHYGDSEAINDAFDIWGQGTMLTVSS
# VL: EIVMTQSPATLSVSPGERATLSCRASQSVGNSLAWYQQRPGQAPRLLIYGASTRATGIPPRFSGSGSGTEFTLTISSLQTEDFAVYYCQQYINWRPLSFGGGTKVEIK
# B2: TCN-533 (5256_A17) (antibody, V domains shown)
# VH: QVQLVQSGADVKKPGSSVTVSCKASGGSFSNYGINWVRQAPGQGLEWMGGIIPLINAPNYAPKFQGRVTITADMFSNIVSLQLTSLRTDDTAVYYCARRKMTTAIDYWGQGTLVTVSS
# VL: QPVLSQPPSASASLGASVTLTCTLSSGFDNYQVAWYQQRPGKGPRFVMRVGNGGNVASKGDGIPDRFSVSGSGLNRYLTIKNIQEDDESDYYCGADHGSGNNFVSPYVFGGGTKLTVL
# B3: TCN-534 (5249_B02) (antibody, V domains shown)
# VH: QVQLVQSGAEVKKPGSSVKVSCRESGGTFNGYTITWVRQAPGQGLEWMGGIIPMMGTVNYAQKLQGRVTITTDYFTKTAYMDLNNLRSEDTAMYYCVKIRYTGQQLLWGQGTLVTVSS
# VL: DIQMTQSPSTLSASIGDRVTITCRASQSIASWLAWYQQKPGKAPKLLIYEAVNLESGVPSRFSGSGSGTDFTLTISSLQPDDFATYFCQHYGTISQTFGGGTKVEIK
# Tests used:
# Details in all cases: remark: other sources report otherwise
# [1] = biological target: recombinant soluble homotrimeric HA, A/duck/Yangzhou/02/2005 (H8N4) (influenza A virus A/duck/Yangzhou/02/2005 (H8N4)); assay: microarray, trimeric HA, transfection supernatant
# [2] = biological target: recombinant soluble homotrimeric HA, A/Hong Kong/156/97 (H5N1) (influenza A virus A/Hong Kong/156/97 (H5N1)); assay: microarray, trimeric HA, transfection supernatant
# [3] = biological target: recombinant soluble homotrimeric HA, A/Anhui/1/05 (H5N1) (influenza A virus A/Anhui/1/2005 (H5N1)); assay: microarray, trimeric HA, transfection supernatant
# [4] = biological target: T1, recombinant soluble homotrimeric HA of A/Anhui/1/05 (H5N1) (Influenza A virus A/Anhui/1/2005 (H5N1)); assay: HA microarray, control mAb
# [5] = biological target: recombinant soluble homotrimeric HA of A/Netherlands/219/03 (H7N7) (Influenza A virus A/Netherlands/219/03 (H7N7)); assay: HA microarray, control mAb
# [6] = biological target: T2, recombinant soluble homotrimeric HA of A/Solomon Islands/3/06 (H1N1) (Influenza A virus A/Solomon Islands/3/2006 (H1N1)); assay: HA microarray, control mAb
# [7] = biological target: T3, recombinant soluble homotrimeric HA of A/Japan/305/57 (H2N2) (Influenza A virus A/Japan/305/1957 (H2N2)); assay: HA microarray, control mAb
# [8] = biological target: T4, recombinant soluble homotrimeric HA of A/Wisconsin/67/05 (H3N2) (Influenza A virus A/Wisconsin/67/2005 (H3N2)); assay: HA microarray, control mAb
# [9] = biological target: T5, recombinant soluble homotrimeric HA of A/Vietnam/1203/04 (H5N1) (Influenza A virus A/Vietnam/1203/2004 (H5N1)); assay: HA microarray, control mAb
# [10] = biological target: T6, recombinant soluble homotrimeric HA of A/duck/Yangzhou/02/2005 (H8N4) (Influenza A virus A/duck/Yangzhou/02/2005 (H8N4)); assay: HA microarray, control mAb
# [11] = biological target: recombinant soluble homotrimeric HA of A/Hong Kong/2108/03 (H9N2) (Influenza A virus A/Hong Kong/2108/2003 (H9N2)); assay: HA microarray, control mAb
# [12] = biological target: T7, recombinant soluble homotrimeric HA of A/Indonesia/5/05 (H5N1) (Influenza A virus A/Indonesia/5/2005 (H5N1)); assay: HA microarray, control mAb
# [13] = biological target: T8, recombinant soluble homotrimeric HA of A/chicken/Vietnam/NCVD-016/08 (H5N1) (Influenza A virus A/chicken/Vietnam/NCVD-016/2008 (H5N1)); assay: HA microarray, control mAb
# [14] = biological target: T9, recombinant soluble homotrimeric HA of A/California/4/09 (H1N1) (Influenza A virus A/California/04/2009 (H1N1)); assay: HA microarray, control mAb
# [15] = biological target: recombinant soluble homotrimeric HA of A/swine/Ontario/01911-2/99 (H4N6) (Influenza A virus A/Swine/Ontario/01911-2/99 (H4N6)); assay: HA microarray, control mAb
# [16] = biological target: T10, recombinant soluble homotrimeric HA of A/Egypt/3300-NAMRU3/08 (H5N1) (Influenza A virus A/Egypt/3300-NAMRU3/2008 (H5N1)); assay: HA microarray, control mAb
# [17] = biological target: T1, recombinant soluble homotrimeric HA of …; assay: HA microarray, BCC supernatant
# [18] = biological target: recombinant soluble homotrimeric HA of A/northern shoveler/California/HKWF115/2007 (H6N1) (Influenza A virus A/northern shoveler/California/HKWF115/2007 (H6N1)); assay: HA microarray, BCC supernatant
# [19] = biological target: T2, recombinant soluble homotrimeric HA of …; assay: HA microarray, BCC supernatant
# [20] = biological target: T3, recombinant soluble homotrimeric HA of …; assay: HA microarray, BCC supernatant
# [21] = biological target: T4, recombinant soluble homotrimeric HA of …; assay: HA microarray, BCC supernatant
# [22] = biological target: T5, recombinant soluble homotrimeric HA of …; assay: HA microarray, BCC supernatant
# [23] = biological target: T6, recombinant soluble homotrimeric HA of …; assay: HA microarray, BCC supernatant
# [24] = biological target: T7, recombinant soluble homotrimeric HA of …; assay: HA microarray, BCC supernatant
# [25] = biological target: T8, recombinant soluble homotrimeric HA of …; assay: HA microarray, BCC supernatant
# [26] = biological target: T9, recombinant soluble homotrimeric HA of …; assay: HA microarray, BCC supernatant
# [27] = biological target: T10, recombinant soluble homotrimeric HA of …; assay: HA microarray, BCC supernatant
# [28] = biological target: T11, recombinant homotrimeric HA, A/Wisconsin/67/05 H3N2 (Influenza A virus A/Wisconsin/67/05 (H3N2)); assay: trimeric HA microarray; transfection supernatant set 3
# [29] = biological target: recombinant homotrimeric HA, A/Vietnam/1203/04 H5N1 (Influenza A virus A/Vietnam/1203/04 (H5N1)); assay: as above
# [30] = biological target: recombinant homotrimeric HA, A/northern shoveler/California/HKWF115/07 (Influenza A virus A/northern shoveler/California/HKWF115/2007 (H6N1; Table 16 prints H6N4)); assay: as above
# [31] = biological target: recombinant homotrimeric HA, A/common magpie/Hong Kong/5052/07 H5N1 (Influenza A virus A/common magpie/Hong Kong/5052/07 (H5N1)); assay: as above
# [32] = biological target: recombinant homotrimeric HA, A/Hong Kong/1073/99 H9N2 (Influenza A virus A/Hong Kong/1073/99 (H9N2)); assay: as above
# [33] = biological target: recombinant homotrimeric HA, A/Indonesia/5/05 H5N1 (Influenza A virus A/Indonesia/5/05 (H5N1)); assay: as above
# [34] = biological target: recombinant homotrimeric HA, A/chicken/Vietnam/NCVD-016/08 H5N1 (Influenza A virus A/chicken/Vietnam/NCVD-016/08 (H5N1)); assay: as above
# [35] = biological target: recombinant homotrimeric HA, A/Egypt/3300-NAMRU3/08 H5N1 (Influenza A virus A/Egypt/3300-NAMRU3/08 (H5N1)); assay: as above
# [36] = biological target: recombinant homotrimeric HA, A/Solomon Islands/3/06 H1N1 (Influenza A virus A/Solomon Islands/3/06 (H1N1)); assay: as above
# [37] = biological target: recombinant homotrimeric HA, A/California/4/09 H1N1 (Influenza A virus A/California/4/09 (H1N1)); assay: as above
# [38] = biological target: recombinant homotrimeric HA, A/South Carolina/1/18 H1N1 (Influenza A virus A/South Carolina/1/18 (H1N1)); assay: as above
# [39] = biological target: recombinant homotrimeric HA, A/Anhui/1/05 H5N1 (Influenza A virus A/Anhui/1/05 (H5N1)); assay: as above
# [40] = biological target: recombinant homotrimeric HA, A/Japan/305/57 H2N2 (Influenza A virus A/Japan/305/57 (H2N2)); assay: as above
# [41] = biological target: recombinant soluble homotrimeric HA, A/northern shoveler/California/HKWF115/2007 (H6N1) (influenza A virus A/northern shoveler/California/HKWF115/2007 (H6N1)); assay: microarray, trimeric HA, transfection supernatant
# [42] = biological target: recombinant soluble homotrimeric HA, A/Hong Kong/2108/03 (H9N2) (influenza A virus A/Hong Kong/2108/2003 (H9N2)); assay: microarray, trimeric HA, transfection supernatant
# [43] = biological target: recombinant soluble homotrimeric HA, A/chicken/Vietnam/NCVD-016/08 (H5N1) (influenza A virus A/chicken/Vietnam/NCVD-016/2008 (H5N1)); assay: microarray, trimeric HA, transfection supernatant
# [44] = biological target: recombinant soluble homotrimeric HA, A/Hong Kong/1073/99 (H9N2) (influenza A virus A/Hong Kong/1073/99 (H9N2)); assay: microarray, trimeric HA, transfection supernatant
# [45] = biological target: T11, recombinant homotrimeric HA, …; assay: trimeric HA microarray; transfection supernatant set 4
binder,measurement,setting,value
B1,Trimeric HA Binding RLU,[1],19600 RLU and 19900 RLU and 35100 RLU
same,Trimeric HA Binding RLU,[2],26600 RLU
same,Trimeric HA Binding RLU,[3],30000 RLU and 14100 RLU and 37200 RLU
same,Trimeric HA Binding RLU,[4],26200 RLU
same,Trimeric HA Binding RLU,[5],47200 RLU
same,Trimeric HA Binding RLU,[6],24100 RLU
same,Trimeric HA Binding RLU,[7],4090 RLU
same,Trimeric HA Binding RLU,[8],40500 RLU
same,Trimeric HA Binding RLU,[9],196 RLU
same,Trimeric HA Binding RLU,[10],14100 RLU
same,Trimeric HA Binding RLU,[11],454 RLU
same,Trimeric HA Binding RLU,[12],43300 RLU
same,Trimeric HA Binding RLU,[13],38500 RLU
same,Trimeric HA Binding RLU,[14],3330 RLU
same,Trimeric HA Binding RLU,[15],14700 RLU
same,Trimeric HA Binding RLU,[16],44400 RLU
B2,Trimeric HA Binding RLU,[17],8060 RLU
same,Trimeric HA Binding RLU,[18],41400 RLU
same,Trimeric HA Binding RLU,[19],39200 RLU
same,Trimeric HA Binding RLU,[20],10800 RLU
same,Trimeric HA Binding RLU,[21],13800 RLU
same,Trimeric HA Binding RLU,[22],5680 RLU
same,Trimeric HA Binding RLU,[23],24700 RLU
same,Trimeric HA Binding RLU,[24],44100 RLU
same,Trimeric HA Binding RLU,[25],47700 RLU
same,Trimeric HA Binding RLU,[26],29300 RLU
same,Trimeric HA Binding RLU,[27],34300 RLU
same,Trimeric HA Binding: RLU,[28],16100 RLU
same,Trimeric HA Binding: RLU,[29],11700 RLU
same,Trimeric HA Binding: RLU,[30],7810 RLU
same,Trimeric HA Binding: RLU,[31],25200 RLU
same,Trimeric HA Binding: RLU,[32],23800 RLU
same,Trimeric HA Binding: RLU,[33],28300 RLU
same,Trimeric HA Binding: RLU,[34],24600 RLU
same,Trimeric HA Binding: RLU,[35],18600 RLU
same,Trimeric HA Binding: RLU,[36],15500 RLU
same,Trimeric HA Binding: RLU,[37],6880 RLU
same,Trimeric HA Binding: RLU,[38],16400 RLU
same,Trimeric HA Binding: RLU,[39],301 RLU
same,Trimeric HA Binding: RLU,[40],18600 RLU
B3,Trimeric HA Binding RLU,[41],21300 RLU
same,Trimeric HA Binding RLU,[42],27 RLU
same,Trimeric HA Binding RLU,[43],11400 RLU
same,Trimeric HA Binding RLU,[44],731 RLU
same,Trimeric HA Binding RLU,[17],6860 RLU
same,Trimeric HA Binding RLU,[18],52400 RLU
same,Trimeric HA Binding RLU,[19],44200 RLU
same,Trimeric HA Binding RLU,[20],50600 RLU
same,Trimeric HA Binding RLU,[21],7980 RLU
same,Trimeric HA Binding RLU,[22],3440 RLU
same,Trimeric HA Binding RLU,[23],46500 RLU
same,Trimeric HA Binding RLU,[24],46400 RLU
same,Trimeric HA Binding RLU,[25],56600 RLU
same,Trimeric HA Binding RLU,[26],30100 RLU
same,Trimeric HA Binding RLU,[27],41400 RLU
same,Trimeric HA Binding: RLU,[45],897 RLU
